The supplement of paper PMC10899765

Assays:
Conditions in all cases: 20 nM; 72 h
[1] = system: MCF10A; assay: percent viability (nuclei count relative to siNT); higher = more viable cells
Procedure: (§1)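 After 72 h, cells were fixed and stained with Hoechst and anti-fibrillarin, and nucleoli per nucleus were counted with CellProfiler. Values are plate-adjusted percent effect for the one-nucleolus and 5+ nucleoli phenotypes, normalised to siNT (0%) and to the positive controls siNOL11 or siKIF11 (100%), as the mean of biological triplicates. Percent viability is the nuclei count relative to siNT.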

[2] = system: MCF10A; assay: one-nucleolus phenotype percent effect (relative to siNT 0% and siNOL11 100%); higher = more cells with one nucleolus (ribosome biogenesis inhibition)
Procedure: as §1

[3] = system: MCF10A; assay: 5+ nucleoli phenotype percent effect (relative to siNT 0% and siKIF11 100%); higher = more cells with five or more nucleoli
Procedure: as §1

Sequence	percent viability [1] [%]	one-nucleolus phenotype percent effect [2] [%]	5+ nucleoli phenotype percent effect [3] [%]
CAGGGCUCAGGGAUUGGAUGGAG [hsa-miR-5088]	77.7	-7.65	20.4
AUGCGAGGAUGCUGACAGUG [hsa-miR-4737]	28.3	35.7	-33.6
CUUCCGCCCCGCCGGGCGUCG [hsa-miR-718]	69	-13.8	30.6
AGUUUUGCAUAGUUGCACUACA [hsa-miR-19a-5p]	124	-20	35.3
UCAGCACCAGGAUAUUGUUGGAG [hsa-miR-3065-3p]	67.2	-25.2	62.3
AGGCCUGUGGCUCCUCCCUCAG [hsa-miR-6735-3p]	50.4	-1.31	15.7
AGACUGACCUUCAACCCCACAG [hsa-miR-6855-3p]	75.7	-4.32	-20.8
UGUAAACAUCCUCGACUGGAAG [hsa-miR-30a-5p]	47.2	-3.76	9.35
CAGUUGGGUCUAGGGGUCAGGA [hsa-miR-4259]	16	31.8	-30.7
AGGGAAGGGGACGAGGGUUGGG [hsa-miR-5196-5p]	40.5	5.32	4.34
UGGGAGGAGGGGAUCUUGGG [hsa-miR-7106-5p]	34.9	-7.27	21.2
UGUUCAUGUAGAUGUUUAAGC [hsa-miR-1206]	95.8	-22.5	42.5
CAAAUUCGUAUCUAGGGGAAUA [hsa-miR-10a-3p]	84.8	-15.8	38.1
UGCAAAAGUAAUUGCAGUUUUUG [hsa-miR-548aj-5p]	81.8	-16.2	4.35
GCUCUGACUUUAUUGCACUACU [hsa-miR-301a-5p]	68.8	-23.6	59.9
AUGGGGACAGGGAUCAGCAUGGC [hsa-miR-6810-5p]	25.9	45.5	-23.9
GUAGAGGAGAUGGCGCAGGG [hsa-miR-877-5p]	54.7	-6.88	10.3
UCUGAAUAGAGUCUGAAGAGU [hsa-miR-4427]	71.5	-23.1	39.9
CUGGGUGAGGGCAUCUGUGGU [hsa-miR-6736-5p]	24.3	34.4	-27
ACUGCAUUAUGAGCACUUAAAG [hsa-miR-20a-3p]	138	-23.3	43.3

Sequence	percent viability [1] [%]	one-nucleolus phenotype percent effect [2] [%]	5+ nucleoli phenotype percent effect [3] [%]
AAUCCUUGCUACCUGGGU [hsa-miR-500b]	32.3	-0.735	12.8
UCGGCUCUCUCCCUCACCCUAG [hsa-miR-6741-3p]	33.2	9.37	-4.11
UGUAAACAUCCCCGACUGGAAG [hsa-miR-30d-5p]	62.7	0.554	30.3
GAAGUGCUUCGAUUUUGGGGUGU [hsa-miR-373-3p]	65.4	-22.2	47.5
UGUGCAAAUCUAUGCAAAACUGA [hsa-miR-19a-3p]	141	-14.6	34.4
AGCCGCUCUUCUCCCUGCCCACA [hsa-miR-6743-3p]	58	-1.42	35.5
UCCUACGCUGCUCUCUCACUCC [hsa-miR-6761-3p]	43.5	-18.4	14.2
AGAUGUCCAGCCACAAUUCUCG [hsa-miR-2964a-5p]	30.3	39.4	-43.9
UUCGGGCUGGCCUGCUGCUCCGG [hsa-miR-3944-3p]	30.8	-7.09	17.5
UGUGUACACACGUGCCAGGCGCU [hsa-miR-3177-5p]	131	-22.2	61.9
GAAGGACCUGCACCUUCG [hsa-miR-6816-3p]	35.3	49.8	-36.7
GCAGUAGUGUAGAGAUUGGUUU [hsa-miR-3129-5p]	40.7	-15	12.6
UUCACUGGAGUUUGUUUCAAUA [hsa-miR-653-3p]	57.9	-7.51	-0.303
GCCCGAGAGGAUCCGUCCCUGC [hsa-miR-4740-3p]	65.9	-18.2	17.8
AAGCCUCUGUCCCCACCCCAG [hsa-miR-6819-3p]	70.8	-17.6	-5.25
UAGAUCUUUGACUCUGGCAGUCUCCAGG [hsa-miR-7161-3p]	87.7	-23.9	28.4
AAUUCUGUAAAGGAAGAAGAGG [hsa-miR-4778-5p]	74.3	-8.03	32.3
UCCCUACCCCUCCACUCCCCA [hsa-miR-3162-3p]	75.9	-5.78	53.4
UAACGCAUAAUAUGGACAUGU [hsa-miR-3912]	71.2	-23.9	27.3
AAAAGUAAUUGUGGUUUUUGC [hsa-miR-548ay-5p]	134	-28.5	28.7

Sequence	percent viability [1] [%]	one-nucleolus phenotype percent effect [2] [%]	5+ nucleoli phenotype percent effect [3] [%]
UCAGGCAGUGUGGGUAUCAGAU [hsa-miR-4692]	23.4	23.2	-11.4
AUCAAAUAAGGACUAGUCUGCA [hsa-miR-3671]	74.3	-10.1	14.8
AGAGUCGGCGACGCCGCCAGC [hsa-miR-4785]	49.5	25.1	-30.3
AAAAGUAAUUGCGGUUUUUGC [hsa-miR-548au-5p]	100	-19.4	42.7
CUCUCACCACUGCCCUCCCACAG [hsa-miR-1229-3p]	75.8	-20.5	24.9
GCAGCCCAGCUGAGGCCUCUG [hsa-miR-4690-3p]	119	-17.1	21.1
CCAGGAGAUCCAGAGAGAAU [hsa-miR-4768-3p]	32.6	0.373	1.69
UGUAGAGCAGGGAGCAGGAAGCU [hsa-miR-4732-5p]	23.8	6.48	-0.0062
UUACACAGCUGGACAGAGGCA [hsa-miR-4672]	17.6	38.5	-34
CCUCAGAUCAGAGCCUUGC [hsa-miR-4330]	91.9	-32.8	59.5
CAGGGGCUGGGGUUUCAGGUUCU [hsa-miR-6813-5p]	23.1	-4.41	-16.1
CAAAGACUGCAAUUACUUUUGCG [hsa-miR-548u]	75.7	-31.1	43.4
GUGUUAAUUAAACCUCUAUUUAC [hsa-miR-2053]	91.5	-1.87	3.14
UCGGCCUGACCACCCACCCCAC [hsa-miR-1234-3p]	75.7	-20.1	54.9
CGUGCCACCCUUUUCCCCAG [hsa-miR-1227-3p]	93.4	6.65	-2.5
UGCAGGGGUCGGGUGGGCCAGG [hsa-miR-6722-3p]	45.7	9	-25.2
CCGCUCUUCCCCUGACCCCAG [hsa-miR-6812-3p]	163	-35.5	54.6
UGCCUGGAACAUAGUAGGGACU [hsa-miR-3116]	23.8	2.45	-20.8
AUUGUCCUUGCUGUUUGGAGAU [hsa-miR-2355-3p]	55.4	-8.98	-3.53
